# From publication PMC4725248, “Yeast mitochondrial HMG proteins”
# T1: CpGcf1p (CpGcf1noMP) (Candida parapsilosis CBS604) (UniProt G8BDQ3)
# T1 sequence: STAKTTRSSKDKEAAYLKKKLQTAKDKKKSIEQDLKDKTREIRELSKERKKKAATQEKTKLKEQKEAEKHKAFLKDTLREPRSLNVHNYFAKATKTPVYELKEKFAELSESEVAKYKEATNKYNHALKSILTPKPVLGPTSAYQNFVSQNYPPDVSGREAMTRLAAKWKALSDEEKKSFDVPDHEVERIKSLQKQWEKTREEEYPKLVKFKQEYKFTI
# T2: ScAbf2p (ScAbf2noMP) (Saccharomyces cerevisiae) (UniProt Q02486)
# T2 sequence: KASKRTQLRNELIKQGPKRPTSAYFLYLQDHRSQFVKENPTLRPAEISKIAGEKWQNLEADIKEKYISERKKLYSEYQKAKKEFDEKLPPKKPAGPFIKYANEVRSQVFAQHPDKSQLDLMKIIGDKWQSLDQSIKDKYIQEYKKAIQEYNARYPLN
# T3: CpGcf1p (CpGcf1noMP) (Candida parapsilosis CBS604, UniProt G8BDQ3 34-251)
# T3 sequence: T1 sequence
# T4: ScAbf2p (ScAbf2noMP) (Saccharomyces cerevisiae, UniProt Q02486 27-183)
# T4 sequence: T2 sequence
# B1: 15 bp atp9 dsDNA (dsDNA)
# DNA 1: GGAGCAGGTATTGGT
# DNA 2: ACCAATACCTGCTCC
# B2: 25 bp atp9 dsDNA (dsDNA)
# DNA 1: GGAGCAGGTATTGGTATTGCTATCG
# DNA 2: CGATAGCAATACCAATACCTGCTCC
# What was measured:
# [1] = biological target: T1, CpGcf1p (CpGcf1noMP) (Candida parapsilosis CBS604); assay: EMSA; settings: EMSA: 20 mM Tris/HCl pH 7.5, 1 mM EDTA, 50 mM NaCl, 100 ug/ml BSA, 3 nM DNA, 10 min 30 C, gel 0.5x TBE 4 C, EM: 20 mM HEPES pH 7.5, 1 mM EDTA, room …
# [2] = biological target: T2, ScAbf2p (ScAbf2noMP) (Saccharomyces cerevisiae); assay: EMSA; settings: EMSA: 20 mM Tris/HCl pH 7.5, 1 mM EDTA, 50 mM NaCl, 100 ug/ml BSA, 3 nM DNA, 10 min 30 C, gel 0.5x TBE 4 C, EM: 20 mM HEPES pH 7.5, 1 mM EDTA, room …
# CpGcf1p (CpGcf1noMP) [3] = biological target: T3, CpGcf1p (CpGcf1noMP); assay: EMSA; settings: 120 nM protein, EMSA: 20 mM Tris/HCl pH 7.5, 1 mM EDTA, 50 mM NaCl, 100 ug/ml BSA, 3 nM DNA, 10 min 30 C, gel 0.5x TBE 4 C, EM: 20 mM HEPES pH 7.5, 1 mM EDTA, room …
# [4] = test system: YlMhb1p (YlMhb1noMP) (Yarrowia lipolytica); assay: EMSA; settings: 50% shift, 3 nM probe, EMSA: 20 mM Tris/HCl pH 7.5, 1 mM EDTA, 50 mM NaCl, 100 ug/ml BSA, 3 nM DNA, 10 min 30 C, gel 0.5x TBE 4 C, EM: 20 mM HEPES pH 7.5, 1 mM EDTA, room …
# ScAbf2p (ScAbf2noMP) [5] = biological target: T4, ScAbf2p (ScAbf2noMP); assay: EMSA; settings: 50% shift, 3 nM probe, EMSA: 20 mM Tris/HCl pH 7.5, 1 mM EDTA, 50 mM NaCl, 100 ug/ml BSA, 3 nM DNA, 10 min 30 C, gel 0.5x TBE 4 C, EM: 20 mM HEPES pH 7.5, 1 mM EDTA, room …
# CpGcf1p (CpGcf1noMP) [6] = biological target: T3, CpGcf1p (CpGcf1noMP); assay: EMSA; EMSA: 20 mM Tris/HCl pH 7.5, 1 mM EDTA, 50 mM NaCl, 100 ug/ml BSA, 3 nM DNA, 10 min 30 C, gel 0.5x TBE 4 C; EM: 20 mM HEPES pH 7.5, 1 mM EDTA, 50 mM NaCl, room; settings: protein: recombinant, tags: GST removed with PreScission protease (pGEX-6P-2), label: 32P, blunt
# ScAbf2p (ScAbf2noMP) [7] = biological target: T4, ScAbf2p (ScAbf2noMP); assay: as above; settings: protein: recombinant; tags: GST removed with PreScission protease (pGEX-6P-2); label: 32P, 5' end of S6; blunt
# ScAbf2p (ScAbf2noMP) [8] = biological target: T4, ScAbf2p (ScAbf2noMP); assay: EMSA; almost quantitative shift; EMSA: 20 mM Tris/HCl pH 7.5, 1 mM EDTA, 50 mM NaCl, 100 ug/ml BSA, 3 nM DNA, 10 min 30 C, gel 0.5x TBE 4 C; EM: 20 mM HEPES pH 7.5, 1 mM EDTA, 50 mM NaCl, room; settings: protein: recombinant; tags: GST removed with PreScission protease (pGEX-6P-2); label: 32P, 5' end of S8; blunt
molecule,measurement,setting,value
ACACCATTAATTAAAGCTGCGAATACGATAGCAATACCAATACCTGCTCC (double strand) [50 bp atp9 dsDNA],binding,[1],binds
same,binding,[2],binds
Holliday junction (HJ),binding signal (fold higher than 3' Flap),CpGcf1p (CpGcf1noMP) [3],8
fluorescent dsDNA,K half,[4],120 nM
same,K half,ScAbf2p (ScAbf2noMP) [5],30 nM
B1,binding result,CpGcf1p (CpGcf1noMP) [6]; 5' end of S6,no binding
same,binding result,ScAbf2p (ScAbf2noMP) [7],no binding
B2,binding result,ScAbf2p (ScAbf2noMP) [8],binds
same,binding result,CpGcf1p (CpGcf1noMP) [6]; 5' end of S8,no binding
